Experimental findings from publication PMC10080908 are described below.

pKd: −log10 of the molar value. “And” between values parts separate entries of the source, which are not always exact repeats. Equal values may be shown once.

Test [1] has as its target UBXN7-WT (human) (UniProt O94888). Description: ITC; VP-ITC; 200 µM RNF111 RING domain injected (20 x 10 µl) into 10 µM UBXN7-WT or UBXN7-UAS, or into 15 µM UBXN7-∆UAS, in the cell; 25 °C; phosphate-buffered saline pH 7.4, 1 mM TCEP; single binding site model.
Test [2] concerns the target UBXN7-UAS recombinant protein (human) (UniProt O94888). Description: ITC; VP-ITC, 25 °C, PBS pH 7.4 with 1 mM TCEP; 200 µM RNF111 RING domain injected (20 x 10 µl) into 10 µM UBXN7-WT or UBXN7-UAS or 15 µM UBXN7-∆UAS; single binding site model. A general note: ITC needs no label: the signal is the heat of the interaction.
For test [3], the target named is UBXN7-WT (human) (UniProt O94888). The test is described as above.
UBXN7-WT (human), sequence (O94888 whole entry, the tested form may be a part): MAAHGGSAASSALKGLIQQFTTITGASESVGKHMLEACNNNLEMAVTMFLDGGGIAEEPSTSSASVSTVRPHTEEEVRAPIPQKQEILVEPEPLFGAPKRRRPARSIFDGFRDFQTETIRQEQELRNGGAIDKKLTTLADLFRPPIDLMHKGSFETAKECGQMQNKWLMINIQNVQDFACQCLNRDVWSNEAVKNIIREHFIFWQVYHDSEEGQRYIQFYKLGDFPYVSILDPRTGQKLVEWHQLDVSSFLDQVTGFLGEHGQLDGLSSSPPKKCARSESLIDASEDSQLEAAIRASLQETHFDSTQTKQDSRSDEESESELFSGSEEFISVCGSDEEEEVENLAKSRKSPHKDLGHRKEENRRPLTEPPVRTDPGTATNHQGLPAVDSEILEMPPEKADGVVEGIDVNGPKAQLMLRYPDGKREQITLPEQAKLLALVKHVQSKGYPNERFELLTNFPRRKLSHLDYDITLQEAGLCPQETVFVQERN

UBXN7-UAS recombinant protein (human), sequence (O94888 94-284): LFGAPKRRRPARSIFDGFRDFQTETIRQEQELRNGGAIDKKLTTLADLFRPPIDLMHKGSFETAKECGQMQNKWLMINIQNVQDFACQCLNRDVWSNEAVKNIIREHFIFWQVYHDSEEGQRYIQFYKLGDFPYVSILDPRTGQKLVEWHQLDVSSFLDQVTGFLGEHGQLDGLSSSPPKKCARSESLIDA

Take “RNF111 RING domain (RNF111-RING, aa 895 to Cter) (domain or fragment)”: the pKd (as a rule, −log10 of the Kd, conventionally taken in molar units) is 5.60 and 5.65 with UBXN7-WT (human) [1]; 5.63 with UBXN7-WT (human) [1] (mean). For the same substance, the stoichiometry N (as a rule, the number of molecules, sites or subunits per partner or assembly) was 0.928 and 1.11 in the test with UBXN7-WT (human) [1]; 1.02 in the test with UBXN7-WT (human) [1] (mean).

“RNF111-RING recombinant protein (domain or fragment)”: in test [2], the pKd was 6.05 and the stoichiometry N was determined as 1. In the test with UBXN7-WT (human) [3], this substance had a pKd of 5.64 and a stoichiometry N of 1.
